The values that follow come from US20040091995A1.

The target in this experiment is human carcinoembryonic antigen (CEA) on MC-38-CEA-2 cells (human) (UniProt P06731). Briefly: FACS analysis of MC-38-CEA-2 tumor cells.

Some results are limits rather than exact numbers.

UniProt P06731, sequence (P06731 35-702): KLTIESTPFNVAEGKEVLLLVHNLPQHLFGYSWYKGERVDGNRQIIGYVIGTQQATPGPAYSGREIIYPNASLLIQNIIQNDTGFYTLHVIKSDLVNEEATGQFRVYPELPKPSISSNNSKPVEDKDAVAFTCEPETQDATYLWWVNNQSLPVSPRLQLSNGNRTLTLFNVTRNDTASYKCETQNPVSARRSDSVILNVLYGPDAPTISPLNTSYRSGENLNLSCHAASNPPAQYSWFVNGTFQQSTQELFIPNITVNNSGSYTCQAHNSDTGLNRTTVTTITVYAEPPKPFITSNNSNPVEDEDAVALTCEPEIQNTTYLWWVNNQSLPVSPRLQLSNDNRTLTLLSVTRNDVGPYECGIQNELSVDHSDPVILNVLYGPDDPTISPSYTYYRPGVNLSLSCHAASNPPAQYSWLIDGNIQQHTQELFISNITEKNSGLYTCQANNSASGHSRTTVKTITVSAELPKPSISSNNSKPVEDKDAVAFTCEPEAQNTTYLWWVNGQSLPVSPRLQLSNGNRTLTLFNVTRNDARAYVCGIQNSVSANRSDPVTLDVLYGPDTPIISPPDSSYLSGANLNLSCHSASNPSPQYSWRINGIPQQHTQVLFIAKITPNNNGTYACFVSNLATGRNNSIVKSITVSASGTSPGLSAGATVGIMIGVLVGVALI

Take “murine IgG2a anti-CEA MAb, COL-1 (antibody)”: the percent of cells positive (COL-1 binding) (% of the cells) is greater than 85.
